Results as given in the supplement of paper PMC10567573.

B1: NEUROD6 (parent)
chain: YHSPELTTPPGHGTLDNSKSMKPY

Variants of: B1
Assay: protein stability index of a GFP-peptide fusion (GPS, HEK-293T) (PSI 1-6); higher = more stable
Conditions: c terminus: a fixed tail appended
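Note: lentivirally expressed fusions sorted by FACS into six bins by GFP to DsRed ratio, PSI derived from sequencing read proportions per bin multiplied by bin number.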

Protein stability index, by site and new letter:
E5: D 2.76 | R 2.66 | F 2.83 | A 2.71 | L 1.67 | T 2.28 | G 2.14 | S 2.29 | M 1.98 | W 2.56 | C 1.75 | Q 2.34 | V 2.14 | K 2.14 | Y 2.32 | I 2.25 | N 2.43
H2: D 4.75 | E 5.07 | C 3.23 | L 3.17 | I 2.17 | Y 4.04 | P 4.29 | S 4.53 | A 3.41 | M 4.18 | G 4.41 | W 3.91 | T 3.61 | K 4.69 | F 4.01 | R 4.14 | V 2.25 | Q 3.15 | N 4.71
Y1: T 4.76 | A 5.09 | L 4.96 | M 4.74 | P 4.37 | C 4.53 | F 2.7 | D 5.05 | G 4.91 | K 4.93 | V 4.69 | Q 5.06 | N 4.94 | W 4.53 | R 4.99 | S 4.93 | E 5.28 | H 4.62 | I 4.77
S3: A 2.15 | R 3.04 | C 2.33 | H 2.44 | V 3.42 | I 2.89 | M 1.94 | T 2.77 | W 2.52 | G 3.46 | E 3.81 | Q 3.12 | L 2.19 | Y 2.02 | F 1.86 | D 2.82 | N 1.56 | K 3.71
D16: I 1.81 | L 1.98 | F 1.75 | T 2.05 | K 1.86 | V 2.18 | A 1.65 | M 2.45 | P 2.74 | N 2.27 | W 2.19 | G 1.56 | S 2.26 | C 2.66 | Y 2.05 | R 1.63 | H 2.46 | Q 2.59 | E 2.32
L6: T 3.28 | D 4.05 | C 2.81 | S 3.13 | Q 3.32 | V 2.39 | E 3.86 | F 2.85 | I 2.63 | H 3.28 | M 2.33 | R 4.02 | Y 1.5 | G 3.05 | A 2.58 | K 4.08 | N 3.25 | W 2.97
G11: H 1.99 | Q 2.28 | E 2.67 | N 2.39 | Y 2.07 | F 1.73 | I 2.21 | R 2.29 | C 2.06 | A 2.34 | M 2.48 | S 2.17 | T 2.08 | L 2.31 | D 2.69 | W 1.98 | K 2.5 | V 1.96
G13: E 2.67 | K 2.35 | A 2.28 | R 1.76 | M 2.13 | S 2.19 | N 2.47 | Q 2.11 | L 2.14 | H 2.48 | I 2.06 | C 1.99 | D 2.46 | F 2.18 | W 1.76 | Y 2.07 | T 2.41 | V 2.05
L15: F 1.77 | K 2.2 | E 2.12 | D 2.69 | W 1.82 | S 2.35 | A 2.17 | M 1.9 | V 2.26 | Y 2.27 | T 3.01 | N 2.46 | I 2.17 | H 2.36 | R 2 | Q 2.77 | G 2.24 | C 2.1
S18: V 2.38 | R 2 | A 2.09 | G 2.39 | Y 1.94 | K 2.43 | F 1.81 | P 2.17 | Q 2.22 | T 2 | L 1.74 | N 2.54 | C 1.81 | D 2.06 | H 2.04 | W 1.8 | M 1.76 | I 1.95 | E 2.16
H12: T 2.53 | R 2.25 | P 2.25 | W 1.43 | C 2.25 | K 2.18 | V 2.16 | L 2.29 | I 2.01 | Q 2.21 | N 2.49 | F 1.97 | E 2.24 | S 1.96 | G 2.48 | D 2.56 | M 2.56 | A 2.16 | Y 1.71
P9: Q 2.22 | Y 1.66 | D 2.78 | I 2.35 | L 2.64 | V 1.95 | K 2.45 | F 1.63 | R 2.29 | A 2.04 | N 2.24 | M 1.8 | G 2.03 | T 2.32 | S 2.22 | W 1.94 | H 3.09 | C 2.18 | E 2.58
T14: R 2.07 | D 2.27 | H 2.24 | Q 1.6 | G 1.87 | A 2.44 | N 3.02 | K 2.07 | F 2.07 | E 2.51 | C 1.9 | Y 1.77 | M 2.33 | W 2.37 | S 2.25 | I 1.9 | L 1.86 | V 1.79
T8: A 2.17 | H 2.15 | D 3.14 | S 2 | W 1.84 | L 2.1 | I 2.12 | N 2.52 | K 2.37 | V 2.04 | Q 2.52 | G 2.47 | M 1.92 | E 3.34 | Y 2.11 | F 2.43 | C 2.01 | R 2.35
K19: A 2.3
N17: S 2.3 | M 1.55 | G 2.68 | E 2.68 | I 2.23 | C 1.69 | V 2.15 | R 2.01 | D 2.21 | W 2.51 | T 2.15 | F 2.14 | Q 2.52 | A 2.51 | P 2.15 | L 1.72 | K 2.14 | H 1.99 | Y 1.88
T7: E 4.01 | Q 2.39 | H 1.86 | G 2.97 | Y 2.55 | S 1.96 | W 3.05 | K 2.69 | C 1.98 | P 3.56 | N 2.84 | I 2.19 | A 1.72 | F 2.12 | V 2.49 | M 3.75 | R 3.58 | D 3.48 | L 2.3
P4: W 2.82 | L 1.95 | G 2.02 | K 2.18 | H 2.07 | M 2.52 | E 3.36 | C 2.38 | V 2.11 | N 2.46 | S 2.44 | Y 1.68 | R 2.32 | Q 2.46 | A 2.6 | F 2.21 | T 2.08 | D 2.97 | I 2.23
P10: W 3.84 | C 1.9 | D 2.74 | E 2.42 | M 1.88 | K 2.13 | Y 1.96 | R 2.3 | T 1.7 | S 1.75 | F 2.03 | H 2.17 | Q 2.02 | G 1.78 | N 1.97 | I 1.67 | V 2.33 | A 1.81 | L 2.13
